This test concerns the target human PCNA, purified (human), P12004. The test can be described thus: SPR; Bio-Rad XPR 36; human PCNA (~350 RU) immobilised on GLC chip by amine coupling; subunits injected at 125 to 2000 nM; 25 mM HEPES pH 7.5, 10% glycerol, 200 mM sodium acetate pH 7.8, 8 mM magnesium acetate, 1 mM DTT, 0.005% Tween-20, 0.2 mg/ml BSA; 20°C; 1:1 (Langmuir) model. Particulars: remark: other sources report otherwise. For orientation: Surface plasmon resonance follows binding to a sensor surface in real time, without labels.

Chain of human PCNA, purified (human), P12004 (P12004 whole entry): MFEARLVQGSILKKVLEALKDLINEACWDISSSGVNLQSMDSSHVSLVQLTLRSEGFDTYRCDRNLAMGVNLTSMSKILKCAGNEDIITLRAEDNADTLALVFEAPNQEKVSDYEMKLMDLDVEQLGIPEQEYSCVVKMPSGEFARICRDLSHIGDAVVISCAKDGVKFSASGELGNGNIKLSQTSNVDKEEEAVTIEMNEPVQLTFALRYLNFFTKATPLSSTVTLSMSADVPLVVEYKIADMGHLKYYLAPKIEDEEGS

B1: p125, purified, P28340 1-1107 (natural protein)
chain: MDGKRRPGPGPGVPPKRARGGLWDDDDAPRPSQFEEDLALMEEMEAEHRLQEQEEEELQSVLEGVADGQVPPSAIDPRWLRPTPPALDPQTEPLIFQQLEIDHYVGPAQPVPGGPPPSRGSVPVLRAFGVTDEGFSVCCHIHGFAPYFYTPAPPGFGPEHMGDLQRELNLAISRDSRGGRELTGPAVLAVELCSRESMFGYHGHGPSPFLRITVALPRLVAPARRLLEQGIRVAGLGTPSFAPYEANVDFEIRFMVDTDIVGCNWLELPAGKYALRLKEKATQCQLEADVLWSDVVSHPPEGPWQRIAPLRVLSFDIECAGRKGIFPEPERDPVIQICSLGLRWGEPEPFLRLALTLRPCAPILGAKVQSYEKEEDLLQAWSTFIRIMDPDVITGYNIQNFDLPYLISRAQTLKVQTFPFLGRVAGLCSNIRDSSFQSKQTGRRDTKVVSMVGRVQMDMLQVLLREYKLRSYTLNAVSFHFLGEQKEDVQHSIITDLQNGNDQTRRRLAVYCLKDAYLPLRLLERLMVLVNAVEMARVTGVPLSYLLSRGQQVKVVSQLLRQAMHEGLLMPVVKSEGGEDYTGATVIEPLKGYYDVPIATLDFSSLYPSIMMAHNLCYTTLLRPGTAQKLGLTEDQFIRTPTGDEFVKTSVRKGLLPQILENLLSARKRAKAELAKETDPLRRQVLDGRQLALKVSANSVYGFTGAQVGKLPCLEISQSVTGFGRQMIEKTKQLVESKYTVENGYSTSAKVVYGDTDSVMCRFGVSSVAEAMALGREAADWVSGHFPSPIRLEFEKVYFPYLLISKKRYAGLLFSSRPDAHDRMDCKGLEAVRRDNCPLVANLVTASLRRLLIDRDPEGAVAHAQDVISDLLCNRIDISQLVITKELTRAASDYAGKQAHVELAERMRKRDPGSAPSLGDRVPYVIISAAKGVAAYMKSEDPLFVLEHSLPIDTQYYLEQQLAKPLLRIFEPILGEGRAEAVLLRGDHTRCKTVLTGKVGGLLAFAKRRNCCIGCRTVLSHQGAVCEFCQPRESELYQKEVSHLNALEERFSRLWTQCQRCQGSLHEDVICTSRDCPIFYMRKKVRKDLEDQEQLLRRFGPPGPEAW
As a reminder, the Kd is the equilibrium constant for the complex coming apart. A low value points to tighter binding. The term koff denotes the rate constant with which the complex falls apart. A low value points to a long-lived complex. The term kon denotes the second-order rate constant of association. A high value points to faster complex formation. For the molecule B1, the Kd amounted to 114 nM, the koff amounted to 0.0002 s⁻¹, the on-rate constant (kon) stood at 1750 M⁻¹ s⁻¹ and the response units worked out at 90 RU.

For the origin of these results see publication PMC7189476.
